Results as given in paper PMC10397247.

How the values were obtained:
[1] = target: T1, O3-bS; assay: two-hybrid library CCNG1;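 note: natural log of median RNA to DNA barcode read ratio; higher means stronger binding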
T1 chain: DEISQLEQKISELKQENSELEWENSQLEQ

[2] = target: T2, O4-bS; assay: two-hybrid library CCNG1;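 note: natural log of median RNA to DNA barcode read ratio; higher means stronger binding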
T2 chain: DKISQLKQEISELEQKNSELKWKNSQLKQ

[3] = target: T3, O5-bS; assay: two-hybrid library CCNG1;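 note: natural log of median RNA to DNA barcode read ratio; higher means stronger binding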
T3 chain: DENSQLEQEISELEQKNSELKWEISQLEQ

[4] = target: T4, O6-bS; assay: two-hybrid library CCNG1;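 note: natural log of median RNA to DNA barcode read ratio; higher means stronger binding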
T4 chain: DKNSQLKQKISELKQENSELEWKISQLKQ

[5] = target: T5, O7-bS; assay: two-hybrid library CCNG1;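 note: natural log of median RNA to DNA barcode read ratio; higher means stronger binding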
T5 chain: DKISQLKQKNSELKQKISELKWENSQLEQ

[6] = target: T6, O8-bS; assay: two-hybrid library CCNG1;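 note: natural log of median RNA to DNA barcode read ratio; higher means stronger binding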
T6 chain: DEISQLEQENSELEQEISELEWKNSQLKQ

[7] = target: T7, O9-bS; assay: two-hybrid library CCNG1
T7 chain: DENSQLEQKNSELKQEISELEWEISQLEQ

[8] = target: T8, P6A-bA; assay: two-hybrid library CCNG1
T8 chain: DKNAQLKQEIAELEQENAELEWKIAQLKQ

[9] = target: T9, 4H2898-AA; assay: two-hybrid library CCmax
T9 chain: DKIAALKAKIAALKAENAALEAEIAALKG

[10] = target: T10, 4H3020-AA; assay: two-hybrid library CCmax; details: mean of both orientations
T10 chain: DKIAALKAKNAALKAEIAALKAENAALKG

[11] = target: T11, 4H3365-AA; assay: two-hybrid library CCmax; details: mean of both orientations
T11 chain: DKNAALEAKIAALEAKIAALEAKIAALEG

[12] = target: T12, 4H355-AA; assay: two-hybrid library CCmax; details: mean of both orientations
T12 chain: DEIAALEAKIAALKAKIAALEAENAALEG

[13] = target: T13, 4H3651-AA; assay: two-hybrid library CCmax; details: mean of both orientations
T13 chain: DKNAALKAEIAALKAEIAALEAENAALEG

[14] = target: T14, 4H3705-AA; assay: two-hybrid library CCmax; details: mean of both orientations
T14 chain: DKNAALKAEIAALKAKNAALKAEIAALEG

[15] = target: T15, 4H3782-AA; assay: two-hybrid library CCmax; details: mean of both orientations
T15 chain: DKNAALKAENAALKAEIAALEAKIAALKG

[16] = target: T16, 4H465-AA; assay: two-hybrid library CCmax; details: mean of both orientations
T16 chain: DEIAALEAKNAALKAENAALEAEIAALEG

[17] = target: T17, 4H486-AA; assay: two-hybrid library CCmax; details: mean of both orientations
T17 chain: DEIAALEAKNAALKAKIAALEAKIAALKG

[18] = target: T18, 4H535-AA; assay: two-hybrid library CCmax; details: mean of both orientations
T18 chain: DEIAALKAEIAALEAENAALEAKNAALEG

[19] = target: T19, 4H58-AA; assay: two-hybrid library CCmax; details: mean of both orientations
T19 chain: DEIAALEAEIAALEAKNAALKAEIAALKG

[20] = target: T20, 4H895-AA; assay: two-hybrid library CCmax; details: mean of both orientations
T20 chain: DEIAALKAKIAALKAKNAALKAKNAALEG

[21] = target: T21, 4H_APH; assay: two-hybrid library CCmax; details: mean of both orientations
T21 chain: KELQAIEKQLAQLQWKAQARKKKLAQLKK

[22] = target: T22, 4H_BCR; assay: two-hybrid library CCmax; details: mean of both orientations
T22 chain: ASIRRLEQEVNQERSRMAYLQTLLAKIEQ

[23] = target: 4H_GCN4; assay: two-hybrid library CCmax; details: mean of both orientations
Chain of 4H_GCN4 (chain, as listed by the source): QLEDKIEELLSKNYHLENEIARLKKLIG

[24] = target: GCN2_T; assay: two-hybrid library CCmax
[25] = target: T23, 4H2585-bA; assay: two-hybrid library CCNG1
T23 chain: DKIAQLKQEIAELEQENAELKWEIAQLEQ

[26] = target: T24, 4H264-bA; assay: two-hybrid library CCNG1
T24 chain: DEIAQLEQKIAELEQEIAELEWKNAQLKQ

[27] = target: T25, 4H2760-bA; assay: two-hybrid library CCNG1
T25 chain: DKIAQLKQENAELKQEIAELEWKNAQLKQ

[28] = target: T26, 4H2859-bA; assay: two-hybrid library CCNG1
T26 chain: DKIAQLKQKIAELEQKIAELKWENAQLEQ

[29] = target: T27, 4H2931-bA; assay: two-hybrid library CCNG1
T27 chain: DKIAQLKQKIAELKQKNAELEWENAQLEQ

[30] = target: T28, 4H3041-bA; assay: two-hybrid library CCNG1
T28 chain: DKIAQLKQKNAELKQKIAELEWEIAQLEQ

[31] = target: T29, 4H3297-bA; assay: two-hybrid library CCNG1
T29 chain: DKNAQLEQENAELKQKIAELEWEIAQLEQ

[32] = target: T30, 4H3364-bA; assay: two-hybrid library CCNG1
T30 chain: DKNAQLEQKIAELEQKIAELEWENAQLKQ

[33] = target: T31, 4H3381-bA; assay: two-hybrid library CCNG1
T31 chain: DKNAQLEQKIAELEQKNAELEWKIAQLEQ

[34] = target: T32, 4H346-bH; assay: two-hybrid library CCNG1
T32 chain: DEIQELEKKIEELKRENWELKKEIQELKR

[35] = target: T33, 4H349-bA; assay: two-hybrid library CCNG1
T33 chain: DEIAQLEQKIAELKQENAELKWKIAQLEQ

[36] = target: T34, 4H56-bA; assay: two-hybrid library CCNG1
T34 chain: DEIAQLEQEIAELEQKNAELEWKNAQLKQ

[37] = target: T35, 4H730-bA; assay: two-hybrid library CCNG1
T35 chain: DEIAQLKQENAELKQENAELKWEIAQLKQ

[38] = target: T36, 4H796-bA; assay: two-hybrid library CCNG1
T36 chain: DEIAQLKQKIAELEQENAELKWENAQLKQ

[39] = target: T37, 4H932-bA; assay: two-hybrid library CCNG1
T37 chain: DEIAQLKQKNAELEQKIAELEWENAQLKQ

[40] = target: T38, 4H949-bA; assay: two-hybrid library CCNG1
T38 chain: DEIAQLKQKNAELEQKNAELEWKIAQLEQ

[41] = target: T39, 4H3175-bN; assay: two-hybrid library CCNG1
T39 chain: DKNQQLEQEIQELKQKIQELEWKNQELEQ

[42] = target: T40, 4H3277-bN; assay: two-hybrid library CCNG1
T40 chain: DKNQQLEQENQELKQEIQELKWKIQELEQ

[43] = target: T41, 4H3298-bN; assay: two-hybrid library CCNG1
T41 chain: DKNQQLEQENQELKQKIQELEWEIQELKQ

[44] = target: T42, 4H3414-bN; assay: two-hybrid library CCNG1
T42 chain: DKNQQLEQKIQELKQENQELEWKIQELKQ

[45] = target: T43, 4H3462-bN; assay: two-hybrid library CCNG1
T43 chain: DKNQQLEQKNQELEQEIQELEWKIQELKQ

[46] = target: T44, 4H3497-bN; assay: two-hybrid library CCNG1
T44 chain: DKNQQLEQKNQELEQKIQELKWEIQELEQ

[47] = target: T45, 4H3613-bN; assay: two-hybrid library CCNG1
T45 chain: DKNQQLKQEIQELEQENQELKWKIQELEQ

[48] = target: T46, 4H3628-bN; assay: two-hybrid library CCNG1
T46 chain: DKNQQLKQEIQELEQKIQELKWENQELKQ

[49] = target: T47, 4H3926-bN; assay: two-hybrid library CCNG1
T47 chain: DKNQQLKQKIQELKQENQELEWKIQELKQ

[50] = target: T48, 4H591-bN; assay: two-hybrid library CCNG1
T48 chain: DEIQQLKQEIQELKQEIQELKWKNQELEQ

[51] = target: T49, 4H626-bN; assay: two-hybrid library CCNG1
T49 chain: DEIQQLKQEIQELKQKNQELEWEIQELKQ

[52] = target: T50, 4H906-bN; assay: two-hybrid library CCNG1
T50 chain: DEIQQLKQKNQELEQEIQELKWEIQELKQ

[53] = target: T51, 4H3855-AA; assay: two-hybrid library CCmax
T51 chain: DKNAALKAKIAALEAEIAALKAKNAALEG

[54] = target: T52, 4H4001-AA; assay: two-hybrid library CCmax; details: mean of both orientations
T52 chain: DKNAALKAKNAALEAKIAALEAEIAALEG

[55] = target: T53, 4H568-AA; assay: two-hybrid library CCmax; details: mean of both orientations
T53 chain: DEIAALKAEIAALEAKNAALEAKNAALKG

[56] = target: T54, 4H687-AA; assay: two-hybrid library CCmax; details: mean of both orientations
T54 chain: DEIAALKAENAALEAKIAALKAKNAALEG

[57] = target: T55, 4H717-AA; assay: two-hybrid library CCmax; details: mean of both orientations
T55 chain: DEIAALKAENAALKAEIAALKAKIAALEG

[58] = target: T56, 4H797-AA; assay: two-hybrid library CCmax; details: mean of both orientations
T56 chain: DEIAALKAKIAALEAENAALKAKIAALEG

[59] = target: T57, 4H883-AA; assay: two-hybrid library CCmax; details: mean of both orientations
T57 chain: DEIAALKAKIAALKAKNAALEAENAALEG

[60] = target: T58, 4H918-AA; assay: two-hybrid library CCmax; details: mean of both orientations
T58 chain: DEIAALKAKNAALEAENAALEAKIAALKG

[61] = target: T59, 4H953-AA; assay: two-hybrid library CCmax; details: mean of both orientations
T59 chain: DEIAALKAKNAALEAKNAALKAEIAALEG

[62] = target: T60, 4H967-AA; assay: two-hybrid library CCmax
T60 chain: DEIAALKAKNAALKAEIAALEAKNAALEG

DEISQLEQKISELKQENSELEWENSQLEQ [O3-bS]
interaction score [1]: -1.46
interaction score [2]: 2.28
interaction score [3]: 0.221
interaction score [4]: -0.838
interaction score [5]: -0.235
interaction score [6]: -0.691
interaction score [7]: -1.14
interaction score [8]: -1.14

DKIAALKAKIAALKAENAALEAEIAALKG [4H2898-AA]
interaction score [9]: 0.588
interaction score [10]: -0.301
interaction score [11]: -1.78
interaction score [12]: 0.0321
interaction score [13]: -0.71
interaction score [14]: 1.04
interaction score [15]: -1.39
interaction score [16]: -1.49
interaction score [17]: 1.49
interaction score [18]: 0.142
interaction score [19]: 2.06
interaction score [20]: -0.62
interaction score [21]: -1.54
interaction score [22]: 0.271
interaction score [23]: -0.672
interaction score [24]: -0.0478

DKIAQLKQEIAELEQENAELKWEIAQLEQ [4H2585-bA]
interaction score [25]: 0.266
interaction score [26]: -1.54
interaction score [27]: 0.582
interaction score [28]: -0.28
interaction score [29]: -0.357
interaction score [30]: 0.083
interaction score [31]: -1.21
interaction score [32]: -0.878
interaction score [33]: -0.791
interaction score [34]: 1.98
interaction score [35]: 1.13
interaction score [36]: -0.397
interaction score [37]: -1.31
interaction score [38]: -1.49
interaction score [39]: -0.825
interaction score [40]: -1.08

DKNQQLEQEIQELKQKIQELEWKNQELEQ [4H3175-bN]
interaction score [41]: 0.818
interaction score [42]: 0.658
interaction score [43]: -0.312
interaction score [44]: -0.633
interaction score [45]: -0.773
interaction score [46]: -0.279
interaction score [47]: -0.132
interaction score [48]: -0.511
interaction score [49]: -0.72
interaction score [50]: -0.0622
interaction score [51]: -0.521
interaction score [52]: -1.02

DKNAALKAKIAALEAEIAALKAKNAALEG [4H3855-AA]
interaction score [53]: 1.05
interaction score [54]: -0.86
interaction score [55]: -1.35
interaction score [56]: -1.5
interaction score [57]: -1.18
interaction score [58]: -1.29
interaction score [59]: -1.77
interaction score [60]: -2.01
interaction score [61]: -1.89
interaction score [62]: -1.53
